B1: AUP1 (parent)
chain: EGLLRFSSWPFSIQDVVQPLTLQV

Variants of: B1
Experiment: protein stability index of a GFP-peptide fusion (GPS, HEK-293T) (PSI 1-6); higher = more stable
Conditions: c terminus: a fixed tail appended
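Also: lentivirally expressed fusions sorted by FACS into six bins by GFP to DsRed ratio, PSI derived from sequencing read proportions per bin multiplied by bin number.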

Protein stability index of substitutions, site by site:
L20: T 1.73; R 1.24; A 1.65; E 1.89; K 1.19; N 1.54; H 1.22; I 5.25; P 1.63; S 2.4; Q 2.28; D 1.98
V17: H 3.15; K 2.35; D 1.37; N 2.03; E 1.38; C 3.22; F 2.53
Q14: Y 3.36; T 1.79; R 2.64
I13: R 2.4; E 1.22; K 2.53; F 3.26; T 2.84; H 1.94; C 1.56; D 1.86; W 1.29
S8: G 2.57; F 3.08; A 2.17; E 2.23; T 2.62; C 2.25
D15: Y 2.41; K 1.48; I 1.3; Q 3.59; M 2.12; E 3.9; L 2.63; N 2.13
S12: M 3.22; G 2.04; P 2.66; D 1.95; H 2.25
P19: W 1.56; I 2.96; S 4.01; L 4.13
L4: S 1.27; K 1.19; N 1.52
F6: L 2.09; Y 1.33; S 1.24; T 1.06; K 1.7; P 2.07; E 1.36; N 1.4; A 1.15; W 2.94; Q 1.65; D 1.46; V 1.73; H 1.34
W9: I 2.27; S 1.73; R 1.48; M 2.45; Y 3.88; D 1.58; C 3.91; P 1.28; E 1.66; K 2.62; T 1.86; Q 2; A 3.6; N 1.42; L 2.97
T21: V 2.81; C 1.52; S 3.58; N 1.74; E 2.9; Q 2.63; P 1.8; G 5.2; D 1.58; L 4.97
V16: H 3.18; D 1.08; P 3.33; T 3.01; E 1.09; S 4.02; I 2.78; K 2.57; C 3.11; L 1.28
P10: V 3.54; N 2.05; I 1.55; M 2.26; A 3.01; G 1.88; Y 3.85; T 2.79; D 2.04; H 4
L22: A 1.68; K 1.76; D 2.61; G 1.6; S 1.85; T 2.47; V 2.62; N 1.27; Q 2.11; P 1.52; H 1.75; C 1.85; I 2.13; E 2.15; Y 2.16; F 3.96
R5: E 4.2; G 3.46; S 2.64; M 1.56; K 1.37; T 3.1; F 3.67; W 3.31; D 1.73
S7: M 2.94; Y 3.72; H 2.13; P 2.2; R 1.33; N 2.32; I 3.04; W 1.83; D 2.32
F11: R 1.7; K 1.78; D 1.04; N 1.85; Q 1.73; M 2.22; S 3.39; P 2.46; G 1.05; T 2.46
Q18: E 2.6; Y 4.33; H 2.53; A 2.25
Q23: C 1.61; D 1.81; A 3.02
